Source: patent US10428347B2, “Herbicide-detoxifying enzymes and uses thereof” (priority 2017, dated 2019)

Legend:
[1] = Sequestration of dicamba by ChD (3 kDa filter, absorbance at 230 nm); format: binding; settings: dicamba 100 mg/L, 10, 20, 30 and 40 uL enzyme solution, 5 minutes at 37° C. (FIG. 18)
Experimental: To four of the tubes, enzyme solution was added to four of the tubes at 10, 20, 30, and 40 uL rates. The two tubes without the enzyme solution served as controls for the experiment. When the enzyme was added, five of the tubes (one of the 0 uL enzyme tubes, and all of the tubes with the enzyme added) were placed in the Eppendorf Thermomixer R for 5 minutes, at 37° C., and 800 rpm. After the incubation period, the tubes were removed from the heat and placed on ice to stop the reaction. […] These new tubes were spun at 1400 rpm for five minutes. When the spin was completed, 100 uL of the top and bottom fractions were added into a 96-well UV-Star plate. Spectral readings were then taken from 200 nm to 340 nm. The reads for the buffer alone controls were subtracted from the experimental values. The relative difference between the control without enzyme added and the experimental samples with enzyme added was calculated at 230 nm.

[2] = Absorbance spectra assay of dicamba degradation by ChD or CAC; settings: dicamba 200 mg/L + enzyme at 20X dilution (5 μM), one hour at 37° C.
soybean = assay: Spray tank dicamba treated with ChD crude cell lysate, applied to field soybean; format: in vivo; settings: field soybean V2-V3, 2 ml of tank sample (about 200 mg/L dicamba, with or without 5% v/v crude cell lysate for 10 minutes), one week after application (FIG. 15)
Experimental: Chlorothalonil dehalogenase (ChD, SEQ ID NO: 168) was prepared as a crude cell lysate as described above in Example 5. […] A 5% v/v solution of the crude cell lysate containing the ChD enzyme was added and the tank was run for an additional 10 minutes. […] Each of the samples was frozen immediately after collection from the tank. Samples were transported to the field on ice to ensure that enzyme activity was halted.

[3] = Absorbance spectra assay of mecoprop degradation by ChD or CAC; format: biochemical; settings: one hour at 37° C.
Experimental: (§1) Small scale (1 mL) assays were performed to evaluate the ability of ChD and CAC to degrade MCPA-4 amine or mecoprop.
(§2) MCPA-4 amine and mecoprop have absorbance maxima (Amax) at approximately 230 and 280 nm. […] MCPA-4 amine or mecoprop end product generation is directly proportional to the degradation MCPA-4 amine or mecoprop, respectively.

[4] = Absorbance spectra assay of 2,4-D degradation by ChD or CAC; format: biochemical; settings: one hour at 37° C.
[5] = Absorbance spectra assay of MCPA-4 amine degradation by ChD or CAC; format: biochemical; settings: one hour at 37° C.
Experimental: as §1, §2

B1: ChD: chlorothalonil dehalogenase from Pseudomonas species strain CTN-3, amino acid SEQ ID NO: 168 (protein, listed as Pseudomonas sp.)
chain: MPPGCSGLCSFVGLTMPLKFSGVLCASLLTITLSVAAHATELILDFNKVQMRSQQLAPGVYAHLPADSAELNAKGGVAGTSGGLIVGTRGAMLIETMLNRRLFDQVQALAKKEALGLPLLYAVNTSYHGDHSYGNMYLKAPTRVIQSTKTRDYVDGHLADDKAFMVKNFGAGRGVEQITARTGDILVPPGGRVSVDLGGKTVEIIDFGFAQTGGDLFVWEPQSKVMWTGNAVVASKPALPWLLDGKLVETLATLQKVYDFLPPDATIVPGHGVPMAREGLRWHLDYLAAVQAGVKDALARKLSLEQTVTELKMPEFRGYVLFDWVHPDLNVPAAYKDLAARP
With B1 the “dicamba in a bound state (relative absorbance at 230 nm of 3 kDa filter fractions)” value [1] was “dose-dependent effect”, the “Percent (%) increase in 259 λ (end product formed) compared to dicamba control” value [2] was 501% and the “damage to or protection of soybean crop (size and growth vs untreated control)” value (soybean) was “almost complete protection of the plants”. The “Percent (%) increase in 252 λ (end-product formed) compared to Mecoprop control” value ([3]; mecoprop 200 mg/L + enzyme at 20X dilution (5 μM)) was 164%, the “Percent (%) increase in 252 λ (end-product formed) compared to Mecoprop control” value ([3]; mecoprop 200 mg/L + enzyme at 40X dilution ([…])) was 129% and the “Percent (%) increase in 252 λ, (end product formed) compared to 2,4-D control” value ([4]; 2,4-D 200 mg/L + enzyme at 20X dilution (5 μM)) was 196%. For the same molecule, the “Percent (%) increase in 252 λ, (end product formed) compared to 2,4-D control” value ([4]; 2,4-D 200 mg/L + enzyme at 40X dilution ([…])) was 122%, the “Percent (%) increase in 252 λ (end product formed) compared to MCPA-4-Amine control” value ([5]; MCPA-4 amine 200 mg/L + enzyme at 20X dilution (5 μM)) was 464% and the “Percent (%) increase in 252 λ (end product formed) compared to MCPA-4-Amine control” value ([5]; MCPA-4 amine 200 mg/L + enzyme at 40X dilution ([…])) was 128.9%.
